Measurements published in paper PMC11751051 (Frontiers in Molecular Biosciences, 2025).

Legend:
GFP-OhyA = biological target: T1, GFP-OhyA (Staphylococcus aureus, UniProt Q2G1P3, M1A); assay: biochemical
T1 construct: gene SAOUHSC_00061

[1] = biological target: GFP-OhyA (green fluorescent protein-oleate hydratase chimeric protein) (Staphylococcus aureus); assay: SEC-MALS; Superose 6 Increase 10/300 GL; 20 mM Tris, 200 mM NaCl, pH 7.6; 100 uL of GFP-OhyA (2 mg/mL) injected at 0.5 mL/min, 25 °C

| Molecule | Kd (GFP-OhyA) [nM] | percent dimer [1] [%] | stoichiometry N [1] |
| --- | --- | --- | --- |
| CCCCCCCC/C=C\CCCCCCCC(=O)OC[C@H](COP(=O)(O)OCC(O)CO)OC(=O)CCCCCCC/C=C\CCCCCCCC (stereo partly drawn) [DOPG] | 79.9 | – | – |
| GFP-OhyA (green fluorescent protein-oleate hydratase chimeric protein) (enzyme) | – | 80.6 | 2 |
